Test results from the supplement of paper PMC12042874.
± gives the uncertainty stated by the source.

Assay: amyloid nucleation score (Sup35N fusion, yeast selection) (log enrichment); library NNK3; higher = more nucleation; inactive = no reads after selection
Summary of the method: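 Sup35N was fused to peptides of 20 random codons and expressed in psi-negative yeast, which were induced with 100 μM copper sulfate for 24 hours and then grown on medium lacking adenine and uracil for 7 days at 30°C. Plasmid inserts from input and output were sequenced on Illumina. The nucleation score is the DiMSum log enrichment of output over input reads, centred on the mode score of non-aggregating sequences. Sequences with under 100 input reads were left out, and random libraries had three technical output replicates.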

| Substance | amyloid nucleation score |
| --- | --- |
| WKGPNRQSMLHGLPLYIYQI | -0.305 ± 0.66 |
| NLCRNDDSLFFCSS | inactive |
| CSIPFVWEIHHM | inactive |
| ECDHSCGRWNWIN | inactive |
| YVTTMFEITRGRSWYSRSLG | 0.611 ± 0.21 |
| PLKCGFGPACPDFYIVEGGK | inactive |
| SHMEWFT | 1.92 ± 0.088 |
| RFISLVRNYFFTCCRRRSMF | inactive |
| ALVSK | inactive |
| IVLTFYIYRNSYCSAV | 0.89 ± 0.092 |
| WFWLRRSFGFYHVKSSNSFT | inactive |
| SDRIDNFAWINFCK | 0.831 ± 0.18 |
| GACVKDSLVAGNSSMTSAGL | 3.9 ± 0.061 |
| RMGWSTGILCRVDTLFITML | inactive |
| RIYLA | inactive |
| MYLIYGHGTIIICTESVSVH | 0.361 ± 0.15 |
| ASATARHTPNIY | inactive |
| DPVNLRC | inactive |
| YFLGWRYQCDIVIFWYQLRV | inactive |
| LWAWIIYGMWKGSFLCHVFS | inactive |
| DWRLRSFICRAVVVCCINGD | 1.54 ± 0.077 |
| MSGEFVV | inactive |
| VCTLGFFSKMGRGPRYYS | inactive |

| Substance | amyloid nucleation score |
| --- | --- |
| KFIGFYVWVYVCHCVVIRAY | inactive |
| GPMNLMRSVRYALSRSYLLL | inactive |
| KAQEHPA | inactive |
| STYLF | inactive |
| FVSVLACSDKLGK | inactive |
| RMLRNF | -0.466 ± 1.9 |
| YCVYQWLSYSVCLFNLMECT | inactive |
| FITGCSYVAYFMIAA | inactive |
| NFPGLTASMIKCGGNQCYVG | inactive |
| PRIQKSWVGAM | inactive |
| SILLVMP | inactive |
| VACCAGFDNRAVLWGCANPI | inactive |
| VMRIVATQRAGWTGTREPGM | inactive |
| FVVGIFYSIQYIECSRVSSY | -0.106 ± 0.55 |
| LGSVVRRDEGIVGESY | 0.078 ± 0.6 |
| TVTLRRYLSMERPYTSIFSI | inactive |
| HVFYPALI | inactive |
| KCSFTVNYRRRYSLYC | inactive |
| FGMSILVFFTVDRSLET | inactive |
| NLNWGTLSTRFYCVEDS | inactive |
| YMNSVACSEMFSFSGLWEWW | inactive |
| IDGSYAFSKKPDPNSVKYIM | inactive |
| SKTIYWFPPYPYVQFGCHRR | inactive |

| Substance | amyloid nucleation score |
| --- | --- |
| PDGTQINFN | inactive |
| RSTYTSFRARWKRRANGSGW | inactive |
| SLQISLRYKVIMQRMP | 1.24 ± 0.16 |
| ILINSRFMRFVFRAGHRV | inactive |
| LIGQFISYIKSVIGSDRKGC | inactive |
| GQPGQ | inactive |
| YLPAHIYMK | inactive |
| SLDIWGCSKGRRWSGFKI | inactive |
| FEYLSMYELGISVMSTAH | inactive |
| IVSALQFAEAKL | inactive |
| ICQWDVKMPRCATG | inactive |
| FVQNDNYKWVWL | inactive |
| GHCKCGPVGPNKRTAR | inactive |
| CTLRTVCHTGLLWVTFHRQY | 0.675 ± 0.18 |
| LVAKRFISYHLIV | inactive |
| GDYSWSM | 0.167 ± 0.42 |
| NFLLVPYLSPKLDMGGYHLW | inactive |
| SCFAVCHYESRLVYVTYSFL | inactive |
| LYESNVRCNRVVTSLFVSSQ | inactive |
| TFRLKGALRKVVW | inactive |
| CLHEDCRMTADSLPSLRKDR | inactive |
